We go through four molecules from US8324344B2, “Membrane transduction peptides and methods of delivering material to a target cell” (STC.UNM, priority 2008, dated 2012).

One test has as its system human tumor cell lines. The following applies: cited from earlier work.
For test [1], the system named is HT-1080 cells. Nature of the test: Internalization of offered recombinant proteins in HT-1080 cells, immunoblotting of cytosolic and nuclear fractions. It is filed as cell-based, human. The following applies: 1 μM; for Internalization to cytosol and nucleus of HT-1080 cells: 37° C. The protocol: HT-1080 cells were grown in six-well plates under standard conditions. At confluence, the cells were treated with fresh medium containing either wild-type TFPI-2, TFPI-2^1-188, R24Q KD1, R24K KD1, or R24K KD1-CT as previously described (Kempaiah and Kisiel, Apoptosis, 2008;13:702-715). Briefly, duplicate wells were treated with purified proteins (1 μM final concentration) and incubated at either 37° C. or 4° C. for different time periods. Two wells were also treated with phosphate-buffered saline (PBS) at each temperature to serve as a control. At selected time points, the media was removed and the cells were rinsed once with PBS. The cells were then washed with 1 M NaCl/PBS for 30 minutes with gentle shaking to dissociate cell surface-bound proteins (Iino et al., Arterioscler. Thromb. Vasc. Biol., 1998;18:40-46). Finally, the cells were rinsed once with PBS, trypsinized and harvested for the preparation of cell lysates and cell fractions.
To prepare total cell lysates, 1-3×10^6 cells were lysed by sonication in 500 μl of lysis buffer containing of 125 mM Tris-HCl (pH 6.8), 2% SDS, 10% glycerol, 50 mM sodium phosphate, 1 mM phenylmethanesulphonylfluoride (PMSF) and protease inhibitor cocktail. The lysate was kept on ice for about 10 minutes, centrifuged for 15 minutes at 10,000×g at 4° C., and the supernatant recovered. To prepare nuclear and cytosolic fractions, approximately 2×10^6 cells were harvested and washed twice with cold PBS by centrifugation at 600×g in a Beckman J-6M/E centrifuge for seven minutes at 4° C. Five volumes of ice cold cytosolic buffer (10 mM Hepes pH 7.4, 0.33 M sucrose, 1 mM MgCl2, 0.1% Triton X-100 and protease inhibitor cocktail) was added to the cells and incubated on ice for 15 minutes. The cytosolic fraction was collected by centrifugation at 900×g for five minutes at 4° C. The resulting undissolved pellet was washed twice with cytosolic buffer followed by centrifugation at 900×g for five minutes at 4° C. Finally, the resulting pellet was resuspended in five volumes of ice cold buffer containing 0.45 M NaCl in 10 mM Hepes (pH 7.4) and protease inhibitor cocktail. The suspension was incubated on ice for an additional 15 minutes to dissolve the nucleus, and subsequently centrifuged at 18,000×g for five minutes at 4° C. The resulting supernatant was collected as the nuclear extract. All samples were boiled for three minutes in the presence of 5% SDS and stored at −20° C. until use.
The cell lysate, cytosol and nuclear fractions were subjected to SDS-PAGE using 4-20% polyacrylamide gradient gels. […] The membranes were then probed with specific antibodies dissolved in fresh blocking buffer. Immunoreactive proteins were identified using HRP-conjugated secondary antibodies and a chemiluminescent reagent system essentially as described (Kempaiah et al., Mol. Cancer, 2007;6:20). The integrity of the cytosolic and nuclear fractions was verified using anti-α-tubulin and anti-histone-H1 antibodies, respectively (Guo et al., Am. J Physiol. Cell Physiol., 2007;292:2095-2102).
The relative intensity of the Western blot bands were quantified using QUANTISCAN software (Biosoft, Cambridge, U.K.). The intensities are reported in arbitrary units (A.U.) obtained by subtracting the background value from the corresponding band's mean value.
(In general: In western blotting, separated proteins are transferred to a membrane and probed.)

Test [2] deals with HT-1080 cells. Briefly: Localization of protein in stably-transfected overexpressing HT-1080 cells, immunoblotting and immunocytochemistry. It is filed as cell-based, human. To be noted: HT-1080 cells stably transfected with cDNA (FIG. 3, FIG. 4C, 4D). As for the experimental part:
HT-1080 and HEK 293 cell lines were stably transfected to overexpress either wild-type human TFPI-2 or a mutant TFPI-2 construct lacking the carboxy-terminal tail (TFPI-2^1-188), and were maintained as described (Chand et al., Blood, 2004;103:1069-1077, Du et al., Arch. Biochem. Biophys:, 2003;417:96-104). An anti-human TFPI-2 murine monoclonal antibody designated as SK-9 was prepared as described (Du et al., Arch. Biochem. Biophys., 2003;417:96-104) and coupled to Affi-Gel 10 according to the manufacturer's recommendation. Recombinant human TFPI-2 was purified from HEK 293 serum-free conditioned media by a two-step chromatography procedure involving heparin-agarose (Sprecher et al., Proc. Natl. Acad. Sci. USA., 1994;91:3353-3357) and SK-9-AffiGel 10 affinity chromatography. In the latter procedure, heparin-agarose purified TFPI-2 was dialyzed against 50 mM Tris-HCl (pH 7.5) and applied to the SK-9-AffiGel 10 column equilibrated at room temperature with this buffer. After a wash step with 50 mM Tris-HCl (pH 7.5)/0.5 M NaCl, TFPI-2 was eluted with 0.1 M glycine (pH 2.5)/0.5 M NaCl into one-tenth volume of 1 M Tris-HCl (pH 8.8) to immediately neutralize the pH 2.5 glycine. […]

Test [3] deals with HT-1080 cells. Briefly: Confocal microscopy of Alexa Fluor 488-conjugated TFPI-2 internalization in HT-1080 cells. To be noted: 50 μg/ml. It is filed as cell-based, human. The protocol:
The internalization of recombinant TFPI-2 in HT-1080 cells was assessed by confocal microscopy using a Zeiss LSM510-META microscope and Alexa Fluor 488-conjugated TFPI-2. Approximately 0.5 mg of recombinant TFPI-2 protein was labeled with Alexa Fluor 488 dye following the manufacturer's instructions. Alexa Fluor-conjugated protein (50 μg/ml) was added to two sets of HT-1080 cells that were grown to confluence in two-chamber culture slides and incubated either at 37° C. or 4° C. for different time periods. Cells were then washed twice with cold PBS and fixed with 4% paraformaldehyde solution for 15 minutes. The slides were further rinsed twice with cold PBS, treated with a drop of mounting medium containing 4′,6-diamidino-2-phenylindole (DAPI), and covered with a coverslip for confocal microscopy.

Setting [4] is: five minutes, immunoblot (FIG. 4B).

“Also recorded” adds a separate entry of the source.

B1: R24K KD1: Mutated first Kunitz-type domain of TFPI-2 (R24K), recombinant (protein)
chain: DAAQEPTGNNAEICLLPLDYGPCKALLLRYYYDRYTQSCRQFLYGGCEGNANNFYTWEACDDACWRIEKVPKV
modifications: left off: small tags and cut ends
notes: Mutated first Kunitz-type domain of TFPI-2 (R24K), recombinant
B1: the “Apoptosis induction potency relative to TFPI-2” value in the test with human tumor cell lines is recorded as “more potent inducer of apoptosis than TFPI-2”. For the same molecule, the “Induction of caspase-mediated apoptosis” value in the test on human tumor cell lines (several tumor cell lines, exogenously offered, Kempaiah and Kisiel 2008) was “induce caspase-mediated apoptosis”. Also, the “Internalization to cytosol and nucleus of HT-1080 cells” value (“Internalization to cytosol and nucleus” for short) in the test with HT-1080 cells [1] (setting [4]) was “is not internalized to either the cytosol or nucleus; also recorded: failed to enter the cells”. Besides, in the test with HT-1080 cells [1] (48-hour incubation at 37° C.), the “Internalization by HT-1080 cells after 48-hour incubation” value is recorded as “failed to be internalized”.

B2: TFPI-2^1-188: TFPI-2 construct lacking the carboxy-terminal tail (amino acids 189-213 of SEQ ID NO:1) (protein, listed as Homo sapiens)
chain: DAAQEPTGNNAEICLLPLDYGPCRALLLRYYYDRYTQSCRQFLYGGCEGNANNFYTWEACDDACWRIEKVPKVCRLQVSVDDQCEGSTEKYFFNLSSMTCEKFFSGGCHRNRIENRFPDEATCMGFCAPKKIPSFCYSPKDEGLCSANVTRYYFNPRYRTCDAFTYTGCGGNDNNFVSREDCKRACAK
modifications: tissue factor pathway inhibitor-2
As for B2, the “Localization of overexpressed protein” value in the test with HT-1080 cells [2] is given as “failed to demonstrate nuclear localization; also recorded: confined to the cytoplasm”. Moreover, the “Internalization to cytosol and nucleus” value in the test with HT-1080 cells [1] (up to 30 minutes, immunoblot (FIG. 4A)) is reported as “is not internalized as readily to either the cytosol or nucleus; also recorded: slowly internalized, but failed to be transported to the nucleus”.

B3: Alexa Fluor 488-conjugated TFPI-2: Recombinant TFPI-2 protein labeled with Alexa Fluor 488 dye (conjugate, UniProt P48307 23-235, looked up)
Tissue factor pathway …: DAAQEPTGNNAEICLLPLDYGPCRALLLRYYYDRYTQSCRQFLYGGCEGNANNFYTWEACDDACWRIEKVPKVCRLQVSVDDQCEGSTEKYFFNLSSMTCEKFFSGGCHRNRIENRFPDEATCMGFCAPKKIPSFCYSPKDEGLCSANVTRYYFNPRYRTCDAFTYTGCGGNDNNFVSREDCKRACAKALKKKKKMPKLRFASRIRKIRKKQF
modifications: Alexa Fluor 488 label
notes: Recombinant TFPI-2 protein labeled with Alexa Fluor 488 dye
As for B3, the “Intracellular localization by confocal microscopy” value is “limited punctate distribution of TFPI-2 in the cytosol” in the test with HT-1080 cells [3] (4° C., five minutes and 10 minutes (FIG. 1D)); “significant cytosolic and nuclear-associated TFPI-2” in the test with HT-1080 cells [3] (4° C., two hour time point (FIG. 1D)); “cytosolic and nuclear localization of TFPI-2; also recorded: uniform distribution of TFPI-2” in the test on HT-1080 cells [3] (two-hour incubation at 37° C. (FIG. 1B)).

B4: R24K KD1-CT: Chimera of first Kunitz-type domain (amino acids 1-73, R24K) and carboxy-terminal tail (amino acids 187-213) of TFPI-2, SEQ ID NO:2 (protein)
chain: DAAQEPTGNNAEICLLPLDYGPCRALLLRYYYDRYTQSCRQFLYGGCEGNANNFYTWEACDDACWRIEKVPKVEFAKALKKKKKMPKLRFASRIRKIRKKQF
modifications: chimera of the first Kunitz-type domain (with the R24K mutation) and the carboxy-terminal tail
As for B4, the “Internalization to cytosol and nucleus” value with HT-1080 cells [1] (setting [4]) was “is internalized to both the cytosol and nuclear fractions; also recorded: rapidly internalized and translocated to the nucleus”; in the test on HT-1080 cells [1] (five minutes, immunoblot (FIG. 4B), listed as R24KD 1-CT) it was “internalized and translocated to the nucleus within minutes”.
